Here are results for 94 variants from the supplement of paper PMC10567573.

The chains are these.
B1: NR2F2 (parent)
chain: NIPFFPDLQITDQVALLRLTWSEL
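Note: lentivirally expressed fusions sorted by FACS into six bins by GFP to DsRed ratio, PSI derived from sequencing read proportions per bin multiplied by bin number.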

Variants of B1 are the subject of this series. Put plainly: protein stability index of a GFP-peptide fusion (GPS, HEK-293T) (PSI 1-6); higher = more stable. To be noted: c terminus: a fixed tail appended.
For NIPFFPDLLITDQVALLRLTWSEL [Q9L], the protein stability index worked out at 3.06.

On to NIPFFPDLYITDQVALLRLTWSEL [Q9Y], for which the protein stability index is 2.88.

As for NIPFFPDLHITDQVALLRLTWSEL [Q9H], the protein stability index was 2.84.

NIPFFPDLMITDQVALLRLTWSEL [Q9M]: the protein stability index came to 2.9.

In the case of NIPFFPDLKITDQVALLRLTWSEL [Q9K], the protein stability index worked out at 1.89.

For the variant NIPFFPDLEITDQVALLRLTWSEL [Q9E], the protein stability index turned out to be 2.15.

On to NIPFFPDLFITDQVALLRLTWSEL [Q9F], for which the protein stability index came to 2.56.

As for NIPFFPDLIITDQVALLRLTWSEL [Q9I], the protein stability index turned out to be 1.92.

For NIPFFPDLRITDQVALLRLTWSEL [Q9R], the protein stability index is 2.36.

In the case of NIPFFPDLTITDQVALLRLTWSEL [Q9T], the protein stability index was 2.26.

Regarding NIPFFPDLPITDQVALLRLTWSEL [Q9P], the protein stability index was 1.93.

Regarding NIPFFPDLVITDQVALLRLTWSEL [Q9V], the protein stability index stood at 4.4.

Consider NIPFFPDLDITDQVALLRLTWSEL [Q9D], for which the protein stability index is 2.5.

On to NIPFFPDLWITDQVALLRLTWSEL [Q9W], for which the protein stability index stood at 2.96.

In the case of NIPFFPDLAITDQVALLRLTWSEL [Q9A], the protein stability index was 2.86.

NIPFFPDLNITDQVALLRLTWSEL [Q9N]: the protein stability index came out at 2.63.

With NIPFFPDLSITDQVALLRLTWSEL [Q9S], the protein stability index worked out at 2.83.

Take NIPFFPDLGITDQVALLRLTWSEL [Q9G]: the protein stability index amounted to 4.13.

For the variant NIPFFPDLCITDQVALLRLTWSEL [Q9C], the protein stability index was 2.34.

For the variant NIPFLPDLQITDQVALLRLTWSEL [F5L], the protein stability index stood at 1.56.

Turning to NIPFIPDLQITDQVALLRLTWSEL [F5I], the protein stability index turned out to be 2.26.

With NIPFDPDLQITDQVALLRLTWSEL [F5D], the protein stability index was 2.

For the variant NIPFEPDLQITDQVALLRLTWSEL [F5E], the protein stability index worked out at 1.67.

As to NIPFMPDLQITDQVALLRLTWSEL [F5M], the protein stability index was found to be 1.78.

NIPFPPDLQITDQVALLRLTWSEL [F5P]: the protein stability index turned out to be 1.49.

Take NIPFTPDLQITDQVALLRLTWSEL [F5T]: the protein stability index was 1.49.

For the variant NIPFRPDLQITDQVALLRLTWSEL [F5R], the protein stability index was found to be 2.34.

As to NIPFKPDLQITDQVALLRLTWSEL [F5K], the protein stability index is 2.17.

As for NIPFHPDLQITDQVALLRLTWSEL [F5H], the protein stability index came to 1.79.

With NIPFNPDLQITDQVALLRLTWSEL [F5N], the protein stability index worked out at 1.73.

Take NIPFYPDLQITDQVALLRLTWSEL [F5Y]: the protein stability index worked out at 2.26.

With NIPFVPDLQITDQVALLRLTWSEL [F5V], the protein stability index was 2.41.

Consider NIPFAPDLQITDQVALLRLTWSEL [F5A], for which the protein stability index is 1.98.

On to NIPFGPDLQITDQVALLRLTWSEL [F5G], for which the protein stability index stood at 1.7.

Consider NIPFQPDLQITDQVALLRLTWSEL [F5Q], for which the protein stability index is 2.13.

As for NIPFCPDLQITDQVALLRLTWSEL [F5C], the protein stability index was found to be 3.66.

For NIPFWPDLQITDQVALLRLTWSEL [F5W], the protein stability index was 1.68.

For NIPFSPDLQITDQVALLRLTWSEL [F5S], the protein stability index was 2.16.

For NIVFFPDLQITDQVALLRLTWSEL [P3V], the protein stability index was 3.79.

Regarding NISFFPDLQITDQVALLRLTWSEL [P3S], the protein stability index stood at 1.41.

NIWFFPDLQITDQVALLRLTWSEL [P3W]: the protein stability index came out at 3.62.

Regarding NICFFPDLQITDQVALLRLTWSEL [P3C], the protein stability index amounted to 2.88.

Consider NILFFPDLQITDQVALLRLTWSEL [P3L], for which the protein stability index is 1.92.

As to NIHFFPDLQITDQVALLRLTWSEL [P3H], the protein stability index was determined as 1.82.

NIAFFPDLQITDQVALLRLTWSEL [P3A]: the protein stability index amounted to 3.65.

Take NINFFPDLQITDQVALLRLTWSEL [P3N]: the protein stability index was found to be 2.28.

In the case of NIDFFPDLQITDQVALLRLTWSEL [P3D], the protein stability index is 2.43.

Take NIGFFPDLQITDQVALLRLTWSEL [P3G]: the protein stability index is 2.86.

For NIEFFPDLQITDQVALLRLTWSEL [P3E], the protein stability index was determined as 2.12.

Consider NIIFFPDLQITDQVALLRLTWSEL [P3I], for which the protein stability index is 2.13.

With NIKFFPDLQITDQVALLRLTWSEL [P3K], the protein stability index came to 3.61.

On to NITFFPDLQITDQVALLRLTWSEL [P3T], for which the protein stability index turned out to be 2.46.

Take NIQFFPDLQITDQVALLRLTWSEL [P3Q]: the protein stability index came to 3.08.

Regarding NIPFFYDLQITDQVALLRLTWSEL [P6Y], the protein stability index is 3.14.

With NIPFFADLQITDQVALLRLTWSEL [P6A], the protein stability index worked out at 2.97.

On to NIPFFQDLQITDQVALLRLTWSEL [P6Q], for which the protein stability index came to 2.32.

For the variant NIPFFKDLQITDQVALLRLTWSEL [P6K], the protein stability index is 2.

Consider NIPFFNDLQITDQVALLRLTWSEL [P6N], for which the protein stability index is 2.81.

As to NIPFFGDLQITDQVALLRLTWSEL [P6G], the protein stability index stood at 3.94.

As to NIPFFTDLQITDQVALLRLTWSEL [P6T], the protein stability index is 2.77.

Take NIPFFFDLQITDQVALLRLTWSEL [P6F]: the protein stability index came out at 3.43.

In the case of NIPFFDDLQITDQVALLRLTWSEL [P6D], the protein stability index was 2.23.

With NIPFFRDLQITDQVALLRLTWSEL [P6R], the protein stability index is 1.51.

With NIPFFCDLQITDQVALLRLTWSEL [P6C], the protein stability index turned out to be 1.8.

Regarding NIPFFHDLQITDQVALLRLTWSEL [P6H], the protein stability index amounted to 2.31.

For NIPFFSDLQITDQVALLRLTWSEL [P6S], the protein stability index was 2.52.

Regarding NIPFFVDLQITDQVALLRLTWSEL [P6V], the protein stability index turned out to be 3.65.

For the variant NIPFFMDLQITDQVALLRLTWSEL [P6M], the protein stability index turned out to be 2.25.

On to NIPFFIDLQITDQVALLRLTWSEL [P6I], for which the protein stability index was 3.02.

In the case of NIPFFEDLQITDQVALLRLTWSEL [P6E], the protein stability index was determined as 2.5.

Consider NYPFFPDLQITDQVALLRLTWSEL [I2Y], for which the protein stability index is 1.47.

In the case of NKPFFPDLQITDQVALLRLTWSEL [I2K], the protein stability index turned out to be 2.25.

Consider NGPFFPDLQITDQVALLRLTWSEL [I2G], for which the protein stability index worked out at 1.46.

Consider NHPFFPDLQITDQVALLRLTWSEL [I2H], for which the protein stability index worked out at 2.1.

As to NVPFFPDLQITDQVALLRLTWSEL [I2V], the protein stability index came out at 2.03.

NTPFFPDLQITDQVALLRLTWSEL [I2T]: the protein stability index stood at 2.01.

Regarding NQPFFPDLQITDQVALLRLTWSEL [I2Q], the protein stability index is 1.78.

NMPFFPDLQITDQVALLRLTWSEL [I2M]: the protein stability index turned out to be 2.5.

As to NSPFFPDLQITDQVALLRLTWSEL [I2S], the protein stability index was found to be 2.38.

On to NWPFFPDLQITDQVALLRLTWSEL [I2W], for which the protein stability index was 3.13.

Regarding NRPFFPDLQITDQVALLRLTWSEL [I2R], the protein stability index stood at 1.94.

Take NLPFFPDLQITDQVALLRLTWSEL [I2L]: the protein stability index turned out to be 1.88.

Consider NPPFFPDLQITDQVALLRLTWSEL [I2P], for which the protein stability index was 2.9.

Turning to NNPFFPDLQITDQVALLRLTWSEL [I2N], the protein stability index came out at 2.02.

As to NIPFFPFLQITDQVALLRLTWSEL [D7F], the protein stability index was determined as 2.25.

Turning to NIPFFPALQITDQVALLRLTWSEL [D7A], the protein stability index is 1.65.

As for NIPFFPQLQITDQVALLRLTWSEL [D7Q], the protein stability index was determined as 3.44.

Consider NIPFFPKLQITDQVALLRLTWSEL [D7K], for which the protein stability index turned out to be 2.03.

With NIPFFPRLQITDQVALLRLTWSEL [D7R], the protein stability index was 2.46.

As for NIPFFPCLQITDQVALLRLTWSEL [D7C], the protein stability index came to 2.67.

As for NIPFFPLLQITDQVALLRLTWSEL [D7L], the protein stability index amounted to 2.88.

Consider NIPFFPELQITDQVALLRLTWSEL [D7E], for which the protein stability index turned out to be 2.4.

On to NIPFFPSLQITDQVALLRLTWSEL [D7S], for which the protein stability index turned out to be 3.27.

On to NIPFFPPLQITDQVALLRLTWSEL [D7P], for which the protein stability index stood at 2.46.
